# Measured values reported in patent US10227575B2, “Multi-domain enzymes having cutinase activity, compositions comprising same and uses thereof” (OZYMES, priority 2015, dated 2019).
# Where two headings read alike, the source gives them in different places. Marks after values point to notes of the source that are not given here.
# B1: Am-Kr: chimeric variant: AmCUT fused to the T/P-rich linker domain and polymer binding domain of KrCUT, SEQ ID NO: 27 (protein)
# chain: ACSDLEIVFARGSGEAPGLGITGTPLVSDVKSALSSASVSSYAVDYAASYDQTSAGPGATDMSNHIKSTAAACPDTKFAIGGYSQGASVTDIAIGIRTYLGTGQTIPTELAPRVVAVIAFGNPLGLYGQTIKTASPTYGPKSLEFCNRGDNVCGGTGTGPGYGHLSYARDGSVDQAAAFIAKQYNASAGTPTTPTPTPTPTPVPTTCVRDSTRDHVAADRAVSLYGRAYARGSRDSLGATSSYNVVSLQQVEGGWRLVTAC
# modifications: YebF carrier; Am-Kr variant
# Tests used:
# [1] = Activity of crude culture supernatants from bioreactor; format: biochemical; settings: pNP-dodecanoate
# [2] = Specific activity of purified enzymes (standard esterase assay); format: biochemical
# Experimental: In summary, using different techniques for enzyme purification, pure enzyme preparations were obtained and tested for their activity towards a standard esterase substrate, pNP-palmitate. Enzymatic activities of the purified variants are summarized below:
# (§1) Esterase activity was determined by monitoring the formation of para-nitrophenol (pNP) at 410 nm from various pNP-esters using a Beckman UV spectrophotometer (model DU 640). Substrates were completely dissolved in 2-propanol (8 mM) and were then added to 50 mM Tris/HCl buffer pH 8.0 to give a final substrate concentration of 0.8 mM. The reaction (1 mL) was started by adding an appropriate amount of enzyme. One enzyme unit (U) was defined as the amount of enzyme that produced 1 μmol of product (pNP) per min; specific activity was expressed as U/mg protein. A molar extinction coefficient of 15 mM^−1 cm^−1 was used for the calculation.
# [3] = Circular dichroism spectroscopy, melting temperature and refolding; format: physicochemical
# Experimental: CD spectra were recorded using a Jasco™ J-815 spectrometer operating with the Spectra™ Manager software. Temperature was controlled using a Jasco™ PFD-452S peltier unit. Previously purified protein solutions were adjusted to 0.15 mg/mL (if quantities allowed for) and CD spectra were recorded between 190 and 250 nm using a Quartz cuvette (ID=0.1 cm). Blanks containing buffer only were prepared and used as baseline. Temperature dependent protein unfolding was monitored at 222 nm with thermo profiles ranging from 20 up to 90° C. (2° C. min-1). Samples were kept for 5 min at the respective maximum temperature and protein refolding was monitored using the same conditions as above reversing the thermo profiles. Thermodynamic parameters (Tm, ΔH, ΔS, ΔG) for the folding/unfolding process, if applicable, were calculated using the Spectra™ Manager software.
# [4] = Enzyme substrate profiles, esterase assays; format: biochemical; settings: highest activity towards a specific substrate set to 100%
# Experimental: as §1
# [5] = Enzymatic activity in the presence of organic solvents; format: biochemical; settings: buffer only = 100%
# Experimental: Enzyme activity in various organic solvents was studied over a concentration range of 1-30% at room temperature. pNP-palmitate was completely dissolved in 2-propanol (8 mM) and then added to 50 mM Tris/HCl buffer pH 8.0 containing up to 30% organic solvent to give a final substrate concentration of 0.8 mM. The reaction was started by addition of enzyme and the formation of pNP was assayed as described above in Example 20.1.
# pH dependence of enzymes = format: biochemical; settings: for Relative activity (%): highest activity = 100%
# Experimental: The influence of different pH values (from 5.5 to 11) on the activities of the purified enzymes was examined in three buffer systems (sodium acetate, sodium phosphate, and Tris-HCl) at room temperature using pNP-palmitate (see esterase assay in Example 20.1) as a substrate at a final substrate concentration of 0.8 mM.
# [6] = Stability in the presence of hydrogen peroxide; format: physicochemical
# Experimental: as §1
# Purified cutinases were incubated at room temperature in the presence of 0, 30, 100, 300, 1500, and 3000 ppm of hydrogen peroxide. Residual enzyme activity was assayed (see Example 20.1) after 1, 2, 3, and 7 days of incubation.
# [7] = format: biochemical, Petromyces albertensis; settings: for Residual ochratoxin A (%): 5 ppm Ochratoxin A, 37° C., relative to incubation without enzyme
# Experimental: The enzymes purified in Example 18 were tested for their ability to degrade the mycotoxin Ochratoxin A. In general, the mycotoxin was incubated with different concentrations of the enzyme, and the remaining mycotoxin concentration, as well the respective degradation products, were monitored by LC-MS over time (where possible/applicable).
# Reactions were performed in 1 mL volumes in glass HPLC vials comprising the mycotoxin to be analyzed and the enzyme to be tested. For Ochratoxin A (Petromyces albertensis, 01877 Sigma), 50 μL of a 100 ppm stock solution in methanol (final concentration of 5 ppm) was added to 910 μL of distilled water and 40 μL of the enzyme to be tested. In control reactions, the volume of enzyme was substituted with distilled water. The reactions were incubated in an Eppendorf thermomixer at 37° C. with shaking at 750 rpm. 100 μL samples were withdrawn at 1, 4 and 24 h for chromatographic analysis.
# Mycotoxin analysis was carried out using a Shimadzu LCMS-2020 equipped with a UV/vis detector. Chromatographic separation of 10 μL injected sample was carried out at 30° C. on a Kinetex 2.6 μm XB-C18 column 100 Å (50×2.1 mm) using a binary gradient. For Ochratoxin A, eluent A consisted of water and eluent B consisted of acetonitrile and the UV detection wavelength was 360 nm.
# The five enzymes tested were screened for their ability to degrade 5 ppm (5,000 ppb) Ochratoxin A at 37° C.
molecule,measurement,setting,value
B1,activity of crude culture supernatant,[1],0.5 U/mL
same,Enzymatic activity of the purified variant,[2]; pNP-palmitate,174 ± 11 U/mg
same,Spec. Act. (U/mg),[2]; towards pNP-palmitate (standard assay),174 ± 11 U/mg
same,refolding,[3]; CD at 222 nm,did not show any refolding
same,melting temperature (Tm),"[3]; CD at 222 nm, unfolding",55.0 °C
same,Tm (° C.),[3]; estimated using CD-spectroscopy,55 ± 1 °C
same,"Relative activity, pNP-acetate (C2)",[4],9 ± 1%
same,"Relative activity, pNP-butyrate (C4)",[4],75 ± 8%
same,"Relative activity, pNP-caprylate (C8)",[4],100* %
same,"Relative activity, pNP-decanoate (C10)",[4],72 ± 2%
same,"Relative activity, pNP-myristate (C14)",[4],46 ± 8%
same,"Relative activity, pNP-palmitate (C16)",[4],49 ± 6%
same,Relative enzymatic activity (%),[5]; 2-Propanol 5% (v/v),70 ± 10%
same,Relative enzymatic activity (%),[5]; 2-Propanol 10% (v/v),23 ± 2%
same,Relative enzymatic activity (%),[5]; Acetone 1% (v/v),118 ± 1%
same,Relative enzymatic activity (%),[5]; Acetone 5% (v/v),90 ± 14%
same,Relative enzymatic activity (%),[5]; Acetone 10% (v/v),74 ± 7%
same,Relative enzymatic activity (%),[5]; Dimethyl sulfoxide (DMSO) 10% (v/v),114 ± 2%
same,Relative enzymatic activity (%),[5]; Dimethyl sulfoxide (DMSO) 20% (v/v),90 ± 8%
same,Relative enzymatic activity (%),[5]; Dimethyl sulfoxide (DMSO) 30% (v/v),60 ± 5%
same,Relative enzymatic activity (%),[5]; Dimethylformamide (DMF) 5% (v/v),120 ± 11%
same,Relative enzymatic activity (%),[5]; Methanol 10% (v/v),87 ± 10%
same,Relative enzymatic activity (%),[5]; Methanol 20% (v/v),60 ± 13%
same,pH opt.,pH dependence of enzymes,9.5
same,Relative activity (%),"pH dependence of enzymes; pH 6.5, sodium phosphate buffer",23 ± 2%
same,Relative activity (%),"pH dependence of enzymes; pH 7.0, sodium phosphate buffer",46 ± 3%
same,Relative activity (%),"pH dependence of enzymes; pH 7.5, sodium phosphate buffer",54 ± 3%
same,Relative activity (%),"pH dependence of enzymes; pH 8.0, Tris/HCl",84 ± 2%
same,Relative activity (%),"pH dependence of enzymes; pH 8.5, Tris/HCl",88 ± 9%
same,Relative activity (%),"pH dependence of enzymes; pH 9.0, Tris/HCl",91 ± 5%
same,Relative activity (%),"pH dependence of enzymes; pH 9.5, Tris/HCl",100* %
same,Relative activity (%),"pH dependence of enzymes; pH 10, Tris/HCl",47 ± 4%
same,Relative activity (%),"pH dependence of enzymes; pH 10.5, Tris/HCl",10 ± 1%
same,Relative activity (%) after exposure to hydrogen peroxide,"[6]; H2O2 30 ppm, Day 0",92 ± 3%
same,Relative activity (%) after exposure to hydrogen peroxide,"[6]; H2O2 30 ppm, Day 1",90 ± 15%
same,Relative activity (%) after exposure to hydrogen peroxide,"[6]; H2O2 30 ppm, Day 2",82 ± 8%
same,Relative activity (%) after exposure to hydrogen peroxide,"[6]; H2O2 30 ppm, Day 3",71 ± 4%
same,Relative activity (%) after exposure to hydrogen peroxide,"[6]; H2O2 30 ppm, Day 7",63 ± 5%
same,Relative activity (%) after exposure to hydrogen peroxide,"[6]; H2O2 100 ppm, Day 0",101 ± 3%
same,Relative activity (%) after exposure to hydrogen peroxide,"[6]; H2O2 100 ppm, Day 1",97 ± 5%
same,Relative activity (%) after exposure to hydrogen peroxide,"[6]; H2O2 100 ppm, Day 2",83 ± 2%
same,Relative activity (%) after exposure to hydrogen peroxide,"[6]; H2O2 100 ppm, Day 3",73 ± 5%
same,Relative activity (%) after exposure to hydrogen peroxide,"[6]; H2O2 100 ppm, Day 7",69 ± 4%
same,Relative activity (%) after exposure to hydrogen peroxide,"[6]; H2O2 300 ppm, Day 0",100 ± 9%
same,Relative activity (%) after exposure to hydrogen peroxide,"[6]; H2O2 300 ppm, Day 1",88 ± 5%
same,Relative activity (%) after exposure to hydrogen peroxide,"[6]; H2O2 300 ppm, Day 2",83 ± 2%
same,Relative activity (%) after exposure to hydrogen peroxide,"[6]; H2O2 300 ppm, Day 3",72 ± 10%
same,Relative activity (%) after exposure to hydrogen peroxide,"[6]; H2O2 300 ppm, Day 7",61 ± 4%
same,Relative activity (%) after exposure to hydrogen peroxide,"[6]; H2O2 1,500 ppm, Day 0",91 ± 8%
same,Relative activity (%) after exposure to hydrogen peroxide,"[6]; H2O2 1,500 ppm, Day 1",97 ± 9%
same,Relative activity (%) after exposure to hydrogen peroxide,"[6]; H2O2 1,500 ppm, Day 2",75 ± 15%
same,Relative activity (%) after exposure to hydrogen peroxide,"[6]; H2O2 1,500 ppm, Day 3",73 ± 3%
same,Relative activity (%) after exposure to hydrogen peroxide,"[6]; H2O2 1,500 ppm, Day 7",60 ± 6%
same,Relative activity (%) after exposure to hydrogen peroxide,"[6]; H2O2 3,000 ppm, Day 0",86 ± 6%
same,Relative activity (%) after exposure to hydrogen peroxide,"[6]; H2O2 3,000 ppm, Day 1",68 ± 9%
same,Relative activity (%) after exposure to hydrogen peroxide,"[6]; H2O2 3,000 ppm, Day 2",63 ± 4%
same,Relative activity (%) after exposure to hydrogen peroxide,"[6]; H2O2 3,000 ppm, Day 3",67 ± 2%
same,Relative activity (%) after exposure to hydrogen peroxide,"[6]; H2O2 3,000 ppm, Day 7",55 ± 3%
same,Relative activity (%) after exposure to hydrogen peroxide,"[6]; H2O2 3,000 ppm, Day 7, listed as Am—Kr",55%
same,Residual ochratoxin A (%),[7]; 1 h,6%
same,Residual ochratoxin A (%),[7]; 4 h,0%
same,Residual ochratoxin A (%),[7]; 24 h,0%
same,Ochratoxin A degraded,[7]; after 4 hours,100%
same,Ochratoxin A Degradation per U and h,[7]; per 1 U of enzyme (pNP standard test) and hour at 37° C.,3 µmol
